According to the DeepSol protein solubility set:

test: soluble on expression in E. coli; label from the status in PepcDB or PDB records

| Sequence | soluble on expression in E. coli |
| --- | --- |
| MHHHHHHLVPRGSMLDFEKPLFEIRNKIESLKESQDKNDVDLQEEIDMLEASLERETKKIYTNLKPWDRVQIARLQERPTTLDYIPYIFDSFMELHGDRNFRDDPAMIGGIGFLNGRAVTVIGQQRGKDTKDNIYRNFGMAHPEGYRKALRLMKQAEKFNRPIFTFIDTKGAYPGKAAEERGQSESIATNLIEMASLKVPVIAIVIGEGGSGGALGIGIANKVLMLENSTYSVISPEGAAALLWKDSNLAKIAAETMKITAHDIKQLGIIDDVISEPLGGAHKDIEQQALAIKSAFVAQLDSLESLSRDEIANDRFEKFRNIGSYIE | soluble |
| GYSQYNIHGNQFYNLGIDYAYRWHRFSFQGETAMGKQGSATLNRFQYSPVEGTQLMIVQRYYSYNYWAMFAHSFGEGSAVQNEQGYYLGVETSPFRYWHILASFDLFSFPWKKYRISKPSRGMDGLLQATFTPHNNLTMYLKYRYKQKERDLTGSKENLTLPIFHHQLRYRLNYFYGDVFSCRTTLDYNHFHSQDRAASKGYQVTQMMSSQLPWTRLFADVQGSYFSTDDYDSRVYVSEKGLLYTFYTPSFQGRGFRCAVRLRYEPNEHWMFITKFGETVYLDRNEIGSGNDLILGNKKADVQMQLRIKF | not soluble |
| MGSDKIHHHHHHMNILVDLTQIPIQKVGVGVYAKETFKFPNEDANELFFLLQDDDNDLRSTFLKSKIILVKSKFFRFFFCRFLLEQFYIPFLCYKYKINILHSLHYSFPIFLFKVKRIVTIHDLTFFIHPSVHTFIKRYYFRLFIKLACRYADRLICVSESTKKDLERICGRRSVSIDVIPLSCSPKMQVGEQELELVKKKFGVVSQYMLFIGTLEPRKNILNLINAFYKFSQKNRDYSLVIIGKKGWFYESIFKLVEELHLERSVVFTGFVTTKEKFILLSGAHSFIYPSIYEGFGLPVLEAITYGIPTITSKLSSLPEVAGNAALYINPYDVQSISDAIESVNCDEETRRKLIKNSEKQRLKYSWKKTANLTYSLYNRCGSI | not soluble |
| MRNVMKATTLESKFPLLAVENGCIVSKEADVTVAFRVELPELFSVTGSEYEAVHSAWHKAVKVLPEYSIVHKQDFFIEEKYRPETDRDDLSFLSRSFERHFNERPFLNHFCYLFLTKTTKARSRQESTFSTLCKGRLVPKEIEDRETVTRFLEAVGQFEKIMNDSGFVTLRRLTTDEITGTETAAGIVEKYLSLSQHDTTVLKDIQLNPEEMRIGDDILCLHTLSDTEDLPGKVATDSRYERLSTDRSDCRLSFAAPVGLLLDCNHCYNQYIFIDDHGENLKRFEQTARNMHSLSRYSRSNQINKAWIEEYLNEAHSKGLTSVRCHCNVMAWSDDREELRRIKNEVGSQLALMECKPRHNTVDVPTLFWAAIPGNEGDFPFEESFYTFIPQALCFFTEETNYKDSLSPFGIKMADRMTGRPLHLDISDLPMKKGVISNRNKFVLGPSGSGKSFFMNHLVRQYYEQNSHIVLIDTGNSYQGLCELIHRKTKGEDGIYYTYTEEKPISFNPFFTDDYKFSVEKKDSIKTLLLALWKGEDEKVTKTESGELGSAVSAYIRRIQQNRDIAPSFDTFYEYMLNDYRKELAARDIKVSREDFNIDNFLTTLRQYYKGGRYDFLLNSNENIDLLHKRFIVFEIDAVKDNAELFPVVTIIIMEAFINKLRRLKGVRKMLICEEAWKALSSPSMSEYLKYLYKTVRKYFGEAIVVTQEVDDIISSPIVKEAIITNSDCKILLDQKKYMNKFDGIQSMLGLTDKEKSQILSINLANHPGRKYKEVWIGLNGVQSAVYATEVSAAEYLTYTTEESEKTEVFALAEELGGDLELAIKRLAETKYK | not soluble |
| MVSRLARLARRVGRKLKALTPTPKTPEPPSLPLILDAPVAPGFTTAREVWCAPGFGVVVDAGGQVLGGAARQALGFSPDLAALPGVRVSDGGSRLILPEGAPRLARGAVVAGWGDLRNYAGFVLNTLPALVEASKAGVLADHPLVTPPLTRWQADLLTLAGLASPLINAAPWVVLDEAVLSPPPSPVATHAMLAEVRERVLATPGPASGARPKLYVSRADAMNAVMVDEEGVEIELAALGYTIVRPETSSTRELIGLFREAKVIVAPTGTVLANALFCAADAQIVEIRPPGANGLWVRDLAVLAGATWHGFDAPGEKEAPGAPLDPALPPASAFGWRADAAALLAFLAQRSLEHHHHHH | not soluble |
| MSLTYILRRSQLLLIVSSYQLVHYLCSQLSSLKDASCMCAYILTTLYKDIDMELAEKDKGRDFTLRNARMDDIDQIIKINRLTLPENYPYYFFVEHLKEYGLAFFVAIVDNSVVGYIMPRIEWGFSNIKQLPSLVRKGHVVSIAVLEEYRRKGIATTLLEASMKSMKNDYNAEEIYLEVRVSNYPAIALYEKLNFKKVKVLKGYYADGEDAYLMARPLEGHHHHHH | not soluble |
| MGSDKIHHHHHHMEFYDIVIVGGGPAGLAAAASAKKNKIDKILILERDCELGGILNQCIHNGFGLHTFKEELTGPEYAGRFIKEVKELGIEYRLNTMVMDISTGDESENGSNDKIVTAMNRTDGLFHIAAKTVILAMGCRERARGALNIPGYRPAGIFSAGTAQRLVNIEGYMPGRKVVILGSGDIGLIMARRMTLEGAKVQVVAELMPYSGGLKRNIVQCLDDFNIPLKLSHTVVDIKGRERVEGITLAQVDEHNKPIEGTEEFYECDTLLLSCGLIPENEISKTAGVELNPVTSGPVVNESLETNVPGVFACGNVLHVHDLVDYVSEEATAAGRHAAEYVKNGGDKSCDGKEISITATGGVRYTVPSTINTAQMDDTVTVRFRVGAVYKNCYIAVYLDDKQLQHRKRPVMAPGEMEQVVLQKKQLIETDNPCTITIKIEEA | not soluble |
| SANTSFLLRKKIFAKLMRITTPSHDHYGSSTLLVRLTNDVYLMEVIAFDFL | not soluble |
| MYNDPRSHGLWEKTAPQPPVTPALQGDAVADVVVVGGGFTGQSAALHLAEGGLDVILLEAKEIGFGGAGRNVGLINGGMWVMPKELPDVLGETYGERLLDLLGDAPVLVRELVEKHGIPCEIEKNGTLHCAVGEKGLAEIRERCEQWSARGAPVRVLDADETASYIGSTAYSGALLDSRAGTIQPLAYVRGLAGAALKAGVRLHTASPVNETGRNGAKWVVKTPEGSVTAKWIVVATEAYSTGPWQIIREEQVYLPYFNFATRPLSDNLQKSILPGRQGCWDTKEILSSFRMDKAGRLVFGSVGALRGTGTAIHRAWAKRSLKRLFPQLGDTEFECEWYGQIGMTDNAVPRFHKFAENVIGFSGYNGRGIAPGTAFGKVIAQHILGEIAEADLPLPVTEPKAQAFRAVKEAYYEAGAQIAHFAGERFLEHHHHHH | not soluble |
| MRNMKSTSHESESGKLLSISSCRPREMVLQRYSLGMTVTADRHLADKREEFAVEDISTGIFASGYGQVGDGRSFSFHIEHRSLVVEIYRPRVAGPVPQAEDVVAMAVRGLVDIDLTDERSLAAAVRDSVASAAPVSR | not soluble |
| MGSDKIHHHHHHMNLFSPHLKRNELIKFAKELDFSKSQDLLINVHRNHAFEGVQSIIAPFLHFANLRAEFNFSSYDDSLSFDNFKEASLELLWLDLTRYKNNVQNFIEERLLELRKISQNPILVLSLGEFKTDKKILNCEIFNIEKLIKEYFDEEDILDLAKEELTGSKLNNKALIFLAQILGLSLIPALVKPALKALVLDLDNTLYQGILGEEGIDNLNLSPLHKTLQEKIKTFKKQGFLLALASKNEEKDAKKLFEIRKDFILQWDDFDARMINWEPKGENILKIAKKFNINTNAMLFIDDNIAELENTKITGVKTLLCDENILYKIKLFPNLLKLSNTKEDQIRAKDIAANALREELKSLSDEEYFQNLEISLNFSKNDLQNIPRISELLGKTNQFIANYTRLNQEKVAQHMQKELIVSVSMSDKLSDSGIIAIFVFSCKEGNLFIDDLCISCRALGRKLETRMFFKAFELALHFFDLKNNNARLYYQKGERNMPFLSFLEQISKEFEKNSALIPFQNLNFKGLIIHEN | not soluble |
| AQCEATIESNDAMQYDLKEMVVDKSCKQFTVHLKHVGKMAKSAMGHNWVLTKEADKEGVATDGMNAGLAQDYVKAGDTRVIAHTKVIGGGESDSVTFDVSKLTPGEAYAYFCSFPGHWAMHKGTLKLSN | soluble |
| MRVAVTGTPGTGKTTATGRLDTALDVAHLNDLVGTEGLYDGVDADRGSKIVDVDAVRDHFAGREDVLVESHLAHRLDDLDAVVVLRCAPETLATRLQDRGDSPEKAAENADSEALAIILSEAVRGHGADAVYEIDTTDRSPDAVAAAIQAVLDGDREPSAGTVDYTDYV | not soluble |
| MSDHEEESHGASPTSPASSGASSPLAPISPRSEGNAPESPSGDVQDIYKDESFEAPASPARDSSAPASPSAASPAGSRSPSPSPVKTKSKVMIDSDEDSDAEESANKRALIDSDASDAEGKKRRVMLDSDDSDHEGTSKKEPTTKNLFGDDSDDDDEDRPKKTNDLDEFVEGRDEEESQETSKPAYDSDDDDGPVDRHGRHFEWDFDKMLAEKKAERKKKTRRGGKDGGIDIINDDDGTVSRLVERMKHAAKSDRNANIERKPAFQKIKMLPEVKAIMLRAGIVEVLIENGFMSALSEWLAPLPDKCLPALDIRITVLKLLHNPRFWKLDRSTLKQSGLGKAVMMLYKHPNETKENKGIANKLIGEWARPIYHLDTDYSTVSRQEREERDYSRMPEKRKKKINSRDEEEPNDDDQPKRPRIRDADEMGPTKSDDLKPGDKGYIPRARVPKPSTKDYVIRPEWRVTGAFKGEKKSTGNNRYDQTFRDFQERTKKSKANRIVKVSLEGRNMGI | soluble |
| GSHMSHDGKEEPGIAKKINSVDDIIIKCQCWVQKNDEERLAEILSINTRKAPPKFYVHYVNYNKRLDEWITTDRINLDKEVLYPKLKATDED | soluble |
| MEDKEAVRRGVTLFALPAHAGEGAKAIWQTCDVIWSALGDSSEDVNWYTKRATLSAVYSATVLYWLGDETPGHEATWEFLDRRIDNVMQFEKFKADVQKNPLLKPLLAGPNWLFAQMRAPLEHHHHHH | soluble |
| MGSDKIHHHHHHMGELTIAKSAGFCFGVTRAVNMVYEAIEKENVPIYTYGPIIHNDEVVKDMEKNGVTVINDLDELSSHEKGVMIIRSHGISKAEYDRIKNCGFEVLNATCPFVSKIHRYVEDYSSKGYDIIIVGSPKHPEVCGIKGWADEKCHVTIINSPEDAENYMKNSTKKLCIVSQTTFNYNKFQDIVEIIAKKGYDITVLNTICNATEVRQTEARKVAQCSDVMIVIGDRHSSNTQKLFEICKNECKNTYYIQTSDEMDYTQIRSNNNVGITAGASTPNNIIEEVSKNVRNEL | not soluble |
| MGSDKIHHHHHHMLFHKFFDFFEGYEDCYVIIGGNAAAIWLAQDHQDFRATQDYDMVVIFENSQLGFSQKFDDFIEKYGYLCVEIGGDVNKKKVYYRFALDPALAVTGVPQQIELFSKIPLRYELRLPTETMPLHFATGPSLSAIVLNDDYYSLLKQCQQKIGHVSILSVPGLIYFKAKAHLDIRQRLANGDKLRHRANKNKHYKDVCRLCDLIIENQTFDSKVVPRTCQNDLKSFIQLVEAEPEQIFKKRFKSDPDFDLNRDEVVRVLRSLLPTS | not soluble |
| GPGSMASSKVILEDTFTVAAVNEEGTVYSRVSRVRCTGEGGGLIITSDVNTGEFPLHSGDRLTIILTDSIELSEQAGSKHYDQSVYHRSTRLDDCDYAMHGRVYSMEVNESSLDVTVHISCGGLLTQIVGKPQSLKDVHYNSDVYILMKRPGS | soluble |
| MGSDKIHHHHHHMYKLVIIEDEHIIRKWLRYAIDYKALDILVIGEAKDGKEGAVLIKESQPDIVLTDINMPIMTAFDMFEVTKDQTYAKIILSGYADFPNARSAIHYGVLEFLTKPIEKAALWECLQTIIAKIEKQKGSNQKTDACVYIPLPQMTDQIPEVVKDILEWVHAHFQDKISTSRLAHDLGYSESYIYQNIKKHLQMPLSDYINQYRINQAIQLMQQEPDLMVYEIAQAVGIYDYRYFDRVFKKYLGQTVKAFKEEHFMKDTDRSKPC | not soluble |
